Patent publication US8536113B2, “EGFR binding peptides and uses thereof” (Janssen Biotech, Inc., priority 2006, dated 2013)
Bridges are numbered along the chain shown (N, C = ends). Where no end group is shown, it is not given here.

These substances were tested against T1, sEGFR-MMB (Homo sapiens, UniProt P00533) (assay: Phage ELISA screening of panning hits). Conditions: phage clone culture supernatant; background typically <200 units.
T1 construct: made in house; host or cells: Human Embryonic Kidney cells (293E)
Type: binding
Method: Phage Screening. Individual phage clones from selections were amplified and screened for EGFR binding by phage ELISA. To amplify pIII phage for screening, phage eluates from round 3 were diluted appropriately and plated with a lawn of XL-1 Blue to yield isolated single plaques. 24 plaques from each pool were picked and inoculated into a culture of XL-1 Blue host cells. The cultures were shaken at 37° C. for 4.5 hr and the cells were removed by centrifugation. To amplify pIX-displaying phagemid clones, phage eluates were infected into XL-1 Blue and plated onto LB-ampicillin plates. Individual colonies were cultured in 1 ml volumes and rescued with VCS-M13 helper phage. Bacterial cells were removed from phage cultures by centrifugation at (2250×g, 7 min) and the phage-containing supernatant was saved.
The protein solution was removed and wells were rinsed twice with Tris-Buffered Saline containing 0.05% Tween-20 (TBS-T) using a plate washer (Embla). The wells were blocked with Starting Block in TBS for 1 hr at room temperature and rinsed twice with TBS-T. An equal volume of phage supernatant and Starting Block in TBS were incubated in the wells for 1 hr at room temperature, and the wells were rinsed five times with TBS-T. Anti-M13/horseradish peroxidase conjugate (Amersham), diluted 1:5000 in Starting Block in TBS, was added into the wells and incubated for 1 hour at room temperature, and then the wells were rinsed five times with TBS-T. Finally, chemiluminescent peroxidase substrate (Roche) was added to the wells, and chemiluminescence was measured on a Tecan plate reader.
Sequences and ELISA signal (background typically <200 units) are given, along with a consensus sequence, if any. Cysteines that are fixed in the library design are underlined.
“10 (YRLFVDESIFFCTRL; S15 library, which displays a random linear 15-mer) [compound 10]” gave an ELISA signal of 3078 units.
“11 (ELGLPTLLCWPTDTL; S15 library, which displays a random linear 15-mer) [compound 11]” showed an ELISA signal of 9380 units.
With “12 (VSGILPILVCHPAAT; S15 library, which displays a random linear 15-mer) [compound 12]” the ELISA signal was 1107 units.
For “14 (HVSLQSLPELICVVS; S15 library, which displays a random linear 15-mer) [compound 14]”, the ELISA signal was 1362 units.
“15 (NWFSLPTLLCFPLNP; S15 library, which displays a random linear 15-mer) [compound 15]” gave an ELISA signal of 3669 units.
“16 (STITSLPTLQCWPIL; S15 library, which displays a random linear 15-mer) [compound 16]” gave an ELISA signal of 13332 units.
In the case of “17 (PIDDESLPVLYCVTS; Random peptide) [compound 17]”, the ELISA signal is reported as 1785 units.
Work on “18 (PIFSSLPVLYCTSQL; S15 library, which displays a random linear 15-mer) [compound 18]” yielded an ELISA signal of 1425 units.
“19 (GADTLPDLLCWESSL; S15 library, which displays a random linear 15-mer) [compound 19]” showed an ELISA signal of 5722 units.
“20 (TVFTLPELVCVVAGT; S15 library, which displays a random linear 15-mer) [compound 20]” was tested, and the ELISA signal was 1515 units.
“21 (LPDLICAVDSGTSGA; S15 library, which displays a random linear 15-mer) [compound 21]” showed an ELISA signal of 1161 units.
“23 (AGCIAFVDVVYCAR; Peptide family identified from the S18 library) [compound 23]” was tested, and the ELISA signal was 6377 units.
“24 (AKCIAFGNSVYCLN; Peptide family identified from the S18 library) [compound 24]” was tested, and the ELISA signal was 31524 units.
Substance “25 (RDCIIFDKTVYCVI; Peptide family identified from the S18 library) [compound 25]” has an ELISA signal of 17060 units.
“26 (KHCILFEKTVYCAK; Peptide family identified from the S18 library) [compound 26]” gave an ELISA signal of 9111 units.
Work on “27 (DSCIQFANLLYCAI; Peptide family identified from the S18 library) [compound 27]” yielded an ELISA signal of 53162 units.
Substance “28 (TDCIRFGVLWYCLV; Peptide family identified from the S18 library) [compound 28]” has an ELISA signal of 4746 units.
Substance “29 (RACITFGKVVYCEV; Peptide family identified from the S18 library) [compound 29]” has an ELISA signal of 30741 units.
With “30 (AYCSFVAGDLVCQV; Peptide family identified from the S18 library) [compound 30]” the ELISA signal was 19792 units.
“31 (TDCVIFGLETYCLR; disulfide 3-12 (inferred)) [compound 31]” was tested, and the ELISA signal was 37925 units.
“32 (SDCVLFGSKLFCSA; families were identified from the S18 library) [compound 32]” was tested, and the ELISA signal was 35327 units.
Work on “33 (TDCVRFGETIYCIV; Peptide family identified from the S18 library) [compound 33]” yielded an ELISA signal of 13291 units.
In the case of “34 (YDCVSFGAVAYCPQ; Peptide family identified from the S18 library) [compound 34]”, the ELISA signal is reported as 3205 units.
Work on “35 (RGCVVFGDNIYCIV; Peptide family identified from the S18 library) [compound 35]” yielded an ELISA signal of 21963 units.
Work on “37 (MICYLVDSGNIICYK; Peptide family identified from the S19 library) [compound 37]” yielded an ELISA signal of 8806 units.
“38 (YDCMIRADGSLICWC; Peptide family identified from the S19 library) [compound 38]” gave an ELISA signal of 1286 units.
“39 (GPCVLIRDYYLLCLE; disulfide 3-13 (inferred)) [compound 39]” was tested, and the ELISA signal was 13951 units.
“40 (AFCRLDFNQWLTCLV; Peptide family identified from the S19 library) [compound 40]” was tested, and the ELISA signal was 2581 units.
“41 (CDCREAVSASLVCRY; Peptide family identified from the S19 library) [compound 41]” was tested, and the ELISA signal was 3347 units.
With “43 (PTCDSATRRVLTICAD; Peptide family identified from the S20 library) [compound 43]” the ELISA signal was 5420 units.
Substance “44 (WMCFLEGYGASLMCQC; Peptide family identified from the S20 library) [compound 44]” has an ELISA signal of 4795 units.
In the case of “45 (DSCCSFLTDGTVVCSL; Peptide family identified from the S20 library) [compound 45]”, the ELISA signal is reported as 9544 units.
“46 (YICTPSDIDSWYICYL; Peptide family identified from the S20 library) [compound 46]” showed an ELISA signal of 6615 units.
“47 (SVCVGTAFPGWMVCGP; Peptide family identified from the S20 library) [compound 47]” was tested, and the ELISA signal was 4771 units.
In the case of “49 (LLCATTSFRDWFVCFT; Peptide family identified from the S20 library) [compound 49]”, the ELISA signal is reported as 4512 units.
Substance “DACTMVFLWCSL (S16 and S17 hits Phage 177) [P177]” has an ELISA signal of 8655 units.
“KTCVSTTFDLWFVCFA (disulfide 3-14 (inferred)) [P176]” was tested, and the ELISA signal was 37440 units.
Substance “LPDDSLPELICKVRG (S15 library, which displays a random linear 15-mer) [P175]” has an ELISA signal of 6790 units.
“RWCYFWWITICEL (S16 and S17 hits Phage 178) [P178]” was tested, and the ELISA signal was 7913 units.
In the case of “SGCLDALWQCVY (S16 and S17 hits Phage 174) [P174]”, the ELISA signal is reported as 34641 units.

What follows are substances tested on A431 cells (assay: Flow cytometry of phage binding to tumor cells). Conditions: not given.
Type: cell-based, human
Method: (§1) Flow cytometry. To evaluate whether the selected peptides from phage display can bind to tumor cells that overexpress EGFR, A431 cells (epidermoid cancer) or an EGFR negative tumor cells, MCF-7 (breast carcinoma) were tested in a flow cytometry assay using fluorescence detection (FACS). For P145, PP146 and their control phage, 2.5×10^5 A431 cells were resuspended in 25 μl of flow staining buffer (dPBS with 1% BSA, 0.09% sodium azide) and incubated with 25 μl of phage clones for 1 hour at 4° C. […] Cells were washed two times with flow staining buffer and then incubated with 0.5 μg of mouse anti M13/fd/F1 filamentous phages monoclonal antibody conjugated to FITC (Fitzgerald Industries International, Inc. Concord, Mass.) for 45 minutes at 4° C. Cells were washed two times with flow staining buffer and acquired by FACSCalibur (BD, Franklin Lakes, N.J.) to detect bound phages on tumor cell surface. Results.
(§2) A431 cells (epidermoid cancer) which overexpress EGFR and EGFR-negative tumor cells, MCF-7 (breast carcinoma) were tested in a flow cytometry assay. Tumor cells (A431 and MCF-7) were harvested with 0.25% tyrpsin-EDTA and washed twice with FACS staining buffer (dPBS with 1% BSA, 0.09% sodium azide). […] After binding at 4° C., cells were washed twice with FACS staining buffer to remove unbound phage and then incubated with 0.5 μg of mouse anti-M13 monoclonal antibody conjugated to FITC (Fitzgerald Industries International, Inc. Concord, Mass.) for 1 hour at 4° C. Mouse anti-M13-FITC incubated with cells without phage was used as background binding. Cells were washed twice with FACS staining buffer to remove unbound detection antibody.
In the case of “KTCVSTTFDLWFVCFA (disulfide 3-14 (inferred)) [P176]”, the “binding to A431 relative to positive control EGF phage” value is reported as “comparable to that by a positive control phage”.
“SGCLDALWQCVY (S16 and S17 hits Phage 174) [P174]” was tested, and the “binding to A431 relative to positive control EGF phage” value was “comparable to that by a positive control phage”.
In the case of “TLCRSFFHPLCYA (Sequences of EGFR-Binding Peptides from pIII phage library (CNL5 P146))”, the “binding to A431 relative to positive control EGF phage” value is reported as “weaker than that exhibited by a positive control phage”.
For VLCHRYYHPICYT [P145], the “binding to A431 relative to positive control EGF phage” value was “weaker than that exhibited by a positive control phage”.

Same assay, conditions: anti-phage-FITC antibody, 4° C.
“KTCVSTTFDLWFVCFA (disulfide 3-14 (inferred)) [P176]” was tested, and the “binding to A431 tumor cells” value was “displayed binding”.
In the case of “SGCLDALWQCVY (S16 and S17 hits Phage 174) [P174]”, the “binding to A431 tumor cells” value is reported as “displayed binding”.
For “TLCRSFFHPLCYA (Sequences of EGFR-Binding Peptides from pIII phage library (CNL5 P146))”, the “binding to A431 tumor cells” value was “displayed binding”.
VLCHRYYHPICYT [P145] was tested, and the “binding to A431 tumor cells” value was “displayed binding”.

Each substance was assayed on MCF-7 (assay: Flow cytometry of phage binding to EGFR negative tumor cells). Conditions: EGFR positive versus EGFR negative cells.
Type: cell-based, human
Method: as §1, §2
In the case of “SGCLDALWQCVY (S16 and S17 hits Phage 174) [P174]”, the “binding to A431 compared with MCF-7” value is reported as “greater to A431 than to MCF-7”.
For VLCHRYYHPICYT [P145], the “binding to A431 compared with MCF-7” value was “greater binding to A431 than MCF-7 cells”.
